Results reported in US20090220535A1 (REGENTS OF THE UNIVERSITY OF COLORADO, published 2009).

biological target: T1, HPV11 L1 protein (human papillomavirus type 11, UniProt P04012 1-501); test: co-expression in E. coli, glutathione sepharose eluate, SDS-PAGE
T1 construct: Full-length HPV11 L1 DNA amplified from pVL11L1
T1 sequence: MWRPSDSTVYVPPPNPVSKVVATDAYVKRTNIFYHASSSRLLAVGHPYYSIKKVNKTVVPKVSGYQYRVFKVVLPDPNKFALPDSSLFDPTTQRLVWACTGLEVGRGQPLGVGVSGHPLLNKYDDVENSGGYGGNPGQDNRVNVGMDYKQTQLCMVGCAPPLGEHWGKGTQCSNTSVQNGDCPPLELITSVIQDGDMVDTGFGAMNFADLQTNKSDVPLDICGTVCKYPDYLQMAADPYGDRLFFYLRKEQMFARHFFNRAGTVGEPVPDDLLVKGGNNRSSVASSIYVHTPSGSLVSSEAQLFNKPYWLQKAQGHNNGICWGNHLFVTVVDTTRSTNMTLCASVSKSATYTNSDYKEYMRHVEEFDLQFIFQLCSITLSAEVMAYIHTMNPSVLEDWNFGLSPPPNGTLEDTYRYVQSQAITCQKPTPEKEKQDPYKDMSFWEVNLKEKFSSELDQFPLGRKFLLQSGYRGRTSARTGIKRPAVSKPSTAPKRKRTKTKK
Protocol: The lysates were then treated with 10 units/ml DNAse I in the presence of 5 mM MgCl2 for 30 minutes. […] Lysates were briefly sonicated, then centrifuged at 17,000 G for one hour and the supernatant was passed over a 10 mL bed volume glutathione sepharose column. […] The columns were washed with buffer L (40 mM Tris-Cl, pH 8.0, 0.2 M NaCl, 1 mM EDTA, 2 mM DTT) until no protein was detectable in the wash (approximately 20 bed volumes). To purify L1+GST-L2 complexes, bound proteins were eluted with 10 mM reduced glutathione in buffer L. The eluates were concentrated using Centriplus concentrators (Amicon). To further purify L1+L2 complexes from contaminating bacterial proteins, free L2 and L2 degradation products, eluted proteins were subjected to size exclusion fast pressure chromatography (FPLC) using a HiLoad Superdex 200 gel filtration column (Pharmacia). FPLC fractions containing complexes were pooled and further concentrated as outlined above. Protein complexes were analyzed by SDS-PAGE followed by Coomassie blue staining or immunoblotting. For densitometric analysis on Coomassie-stained gels, images were captured using a fluor-S MultiImager (Bio-Rad) with Quantity One software (BioRad) and quantitated using ImageQuant software (Molecular Dynamics). Using this strategy, L1 will be present upon elution from glutathione-sepharose only if it is bound to GST-L2.
The ability of each L2 protein to bind HPV11 L1 was determined by the presence or absence of L1 in the eluate from the glutathione sepharose column as measured by SDS-PAGE.

Chain of HPV12 GST-L2 fusion protein, L2 amino acids 360-518 (P08515 whole entry, the tested form may be a part): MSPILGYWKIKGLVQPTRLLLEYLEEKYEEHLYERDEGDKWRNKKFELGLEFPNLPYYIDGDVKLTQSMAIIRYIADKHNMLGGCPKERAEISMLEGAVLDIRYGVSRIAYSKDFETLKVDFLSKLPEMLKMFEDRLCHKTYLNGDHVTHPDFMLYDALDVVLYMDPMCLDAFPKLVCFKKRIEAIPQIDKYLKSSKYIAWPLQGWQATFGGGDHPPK
Chain of COPV1 GST-L2 fusion protein, L2 amino acids 360-513 (P08515 whole entry, the tested form may be a part): as above

Molecule	binding result
HPV11 GST-L2 fusion protein, L2 amino acids 346-439 (other, also called pXA/BN-HPV11L2/346-439; not shown: glutathione-S-transferase (GST) fusion partner from vector pXA/BN (multiple cloning site of pGEX-4T-2); thrombin-cleavab) DIYAEPFDPIPDPVQHSVTQSYLTSTPNTLSQSWGNTTVPLSIPSDWFVQSGPDITFPTASMGTPFSPVTPALPTGPVFITGSDFYLHPTWYFA	binds
HPV11 GST-L2 fusion protein, L2 amino acids 313-400 (other, also called pXA/BN-HPV11L2/313-400; not shown: glutathione-S-transferase (GST) fusion partner from vector pXA/BN (multiple cloning site of pGEX-4T-2); thrombin-cleavab) GARIHYFQDISPVTQAAEEIELHPLVAAENDTFDIYAEPFDPIPDPVQHSVTQSYLTSTPNTLSQSWGNTTVPLSIPSDWFVQSGPDI	no binding
HPV11 GST-L2 fusion protein, L2 amino acids 1-455 (full length) (other, also called pXA/BN-HPV11 L2; not shown: glutathione-S-transferase (GST) fusion partner from vector pXA/BN (multiple cloning site of pGEX-4T-2); thrombin-cleavab) MKPRARRRKRASATQLYQTCKATGTCPPDVIPKVEHTTIADQILKWGSLGVFFGGLGIGTGAGSGGRAGYIPLGSSPKPAITGGPAARPPVLVEPVAPSDPSIVSLIEESAIINAGAPEVVPPTQGGFTITSSESTTPAILDVSVTNHTTTSVFQNPLFTEPSVIQPQPPVEASGHILISAPTITSQHVEDIPLDTFVVSSSDSGPTSSTPLPRAFPRPRVGLYSRALQQVQVTDPAFLSTPQRLVTYDNPVYEGEDVSLQFTHESIHNAPDEAFMDIIRLHRPAITSRRGLVRFSRIGQRGSMYTRSGQHIGARIHYFQDISPVTQAAEEIELHPLVAAENDTFDIYAEPFDPIPDPVQHSVTQSYLTSTPNTLSQSWGNTTVPLSIPSDWFVQSGPDITFPTASMGTPFSPVTPALPTGPVFITGSDFYLHPTWYFARRRRKRIPLFFTDVAA	binds
SGPDITFPTASMGTPFSPVTPALPTGPVFITGSDFYLHPTWYFA (other, also called pXA/BN-HPV11L2/396-439; not shown: glutathione-S-transferase (GST) fusion partner from vector pXA/BN (multiple cloning site of pGEX-4T-2); thrombin-cleavab) [HPV11 GST-L2 fusion protein, L2 amino acids 396-439]	binds
HPV11 GST-L2 fusion protein, L2 amino acids 1-309 (other, also called pXA/BN-HPV11L2/1-309; not shown: glutathione-S-transferase (GST) fusion partner from vector pXA/BN (multiple cloning site of pGEX-4T-2); thrombin-cleavab) MKPRARRRKRASATQLYQTCKATGTCPPDVIPKVEHTTIADQILKWGSLGVFFGGLGIGTGAGSGGRAGYIPLGSSPKPAITGGPAARPPVLVEPVAPSDPSIVSLIEESAIINAGAPEVVPPTQGGFTITSSESTTPAILDVSVTNHTTTSVFQNPLFTEPSVIQPQPPVEASGHILISAPTITSQHVEDIPLDTFVVSSSDSGPTSSTPLPRAFPRPRVGLYSRALQQVQVTDPAFLSTPQRLVTYDNPVYEGEDVSLQFTHESIHNAPDEAFMDIIRLHRPAITSRRGLVRFSRIGQRGSMYTRSG	no binding
HPV11 GST-L2 fusion protein, L2 amino acids 1-156 (other, also called pXA/BN-HPV11L2/1-156; not shown: glutathione-S-transferase (GST) fusion partner from vector pXA/BN (multiple cloning site of pGEX-4T-2); thrombin-cleavab) MKPRARRRKRASATQLYQTCKATGTCPPDVIPKVEHTTIADQILKWGSLGVFFGGLGIGTGAGSGGRAGYIPLGSSPKPAITGGPAARPPVLVEPVAPSDPSIVSLIEESAIINAGAPEVVPPTQGGFTITSSESTTPAILDVSVTNHTTTSVFQN	no binding
HPV11 GST-L2 fusion protein, L2 amino acids 396-455 (other, also called pXA/BN-HPV11L2/396-455; not shown: glutathione-S-transferase (GST) fusion partner from vector pXA/BN (multiple cloning site of pGEX-4T-2); thrombin-cleavab) SGPDITFPTASMGTPFSPVTPALPTGPVFITGSDFYLHPTWYFARRRRKRIPLFFTDVAA	binds
HPV11 GST-L2 fusion protein, L2 amino acids 157-309 (other, also called pXA/BN-HPV11L2/157-309; not shown: glutathione-S-transferase (GST) fusion partner from vector pXA/BN (multiple cloning site of pGEX-4T-2); thrombin-cleavab) PLFTEPSVIQPQPPVEASGHILISAPTITSQHVEDIPLDTFVVSSSDSGPTSSTPLPRAFPRPRVGLYSRALQQVQVTDPAFLSTPQRLVTYDNPVYEGEDVSLQFTHESIHNAPDEAFMDIIRLHRPAITSRRGLVRFSRIGQRGSMYTRSG	no binding
HPV11 GST-L2 fusion protein, L2 amino acids 346-455 (other, also called pXA/BN-HPV11L2/346-455; not shown: glutathione-S-transferase (GST) fusion partner from vector pXA/BN (multiple cloning site of pGEX-4T-2); thrombin-cleavab) DIYAEPFDPIPDPVQHSVTQSYLTSTPNTLSQSWGNTTVPLSIPSDWFVQSGPDITFPTASMGTPFSPVTPALPTGPVFITGSDFYLHPTWYFARRRRKRIPLFFTDVAA	binds
HPV11 GST-L2 fusion protein, L2 amino acids 157-455 (other, also called pXA/BN-HPV11L2/157-455; not shown: glutathione-S-transferase (GST) fusion partner from vector pXA/BN (multiple cloning site of pGEX-4T-2); thrombin-cleavab) PLFTEPSVIQPQPPVEASGHILISAPTITSQHVEDIPLDTFVVSSSDSGPTSSTPLPRAFPRPRVGLYSRALQQVQVTDPAFLSTPQRLVTYDNPVYEGEDVSLQFTHESIHNAPDEAFMDIIRLHRPAITSRRGLVRFSRIGQRGSMYTRSGQHIGARIHYFQDISPVTQAAEEIELHPLVAAENDTFDIYAEPFDPIPDPVQHSVTQSYLTSTPNTLSQSWGNTTVPLSIPSDWFVQSGPDITFPTASMGTPFSPVTPALPTGPVFITGSDFYLHPTWYFARRRRKRIPLFFTDVAA	binds

biological target: T1, HPV11 L1 protein; test: co-expression, glutathione sepharose eluate, densitometry of Coomassie-stained SDS-PAGE

Molecule	L1:L2
HPV6b GST-L2 fusion protein, L2 amino acids 316-459 (other, also called HPV6b L2; not shown: glutathione-S-transferase (GST) fusion partner from vector pXA/BN (multiple cloning site of pGEX-4T-2); thrombin-cleavab) RIHYFYDISPIAQAAEEIEMHPLVAAQDDTFDIYAESFEPGINPTQHPVTNISDTYLTSTPNTVTQPWGNTTVPLSLPNDPFLQSGPDITFPTAPMGTPFSPVTPALPTGPVFITGSGFYLHPAWYFARKRRKRIPLFFSDVAA	> 1 L1:L2 ratio
HPV33 GST-L2 fusion protein, L2 amino acids 319-467 (other, also called HPV33 L2; not shown: glutathione-S-transferase (GST) fusion partner from vector pXA/BN (multiple cloning site of pGEX-4T-2); thrombin-cleavab) GARIHYYQDLSPIVPLDHTVPNEQYELQPLHDTSTSSYSINDGLYDVYADDVDNVHTPMQHSYSTFATTRTSNVSIPLNTGFDTPVMSGPDIPSPLFPTSSPFVPISPFFPFDTIVVDGADFVLHPSYFILRRRRKRFPYFFTDVRVAA	> 1 L1:L2 ratio
HPV16 GST-L2 fusion protein, L2 amino acids 321-473 (other, also called HPV16 L2; not shown: glutathione-S-transferase (GST) fusion partner from vector pXA/BN (multiple cloning site of pGEX-4T-2); thrombin-cleavab) GAKVHYYYDLSTIDPAEEIELQTITPSTYTTTSHAASPTSINNGLYDIYADDFITDTSTTPVPSVPSTSLSGYIPANTTIPFGGAYNIPLVSGPDIPINITDQAPSLIPIVPGSPQYTIIADAGDFYLHPSYYMLRKRRKRLPYFFSDVSLAA	> 1 L1:L2 ratio

biological target: T1, HPV11 L1 protein; test: co-expression in E. coli, glutathione sepharose eluate, immunoblot and Coomassie densitometry

Molecule	binding result
HPV1a GST-L2 fusion protein, L2 amino acids 347-507 (other, range 347-507; also called HPV1a L2; not shown: glutathione-S-transferase (GST) fusion partner from vector pXA/BN (multiple cloning site of pGEX-4T-2); thrombin-cleavab) GARTHFFYDLSSIAPEDSIELLPLGEHSQTTVISSNLGDTAFIQGETAEDDLEVISLETPQLYSEEELLDTNESVGENLQLTITNSEGEVSILDLTQSRVRPPFGTEDTSLHVYYPNSSKGTPIINPEESFTPLVIIALNNSTGDFELHPSLRKRRKRAYV	no binding
BPV1 GST-L2 fusion protein, L2 amino acids 316-469 (other, range 316-469; Cloned as a BamHI/XhoI fragment; also called BPV1 L2; not shown: glutathione-S-transferase (GST) fusion partner from vector pXA/BN (multiple cloning site of pGEX-4T-2); thrombin-cleavab) GPQLHVRYSLSTIHEDVEAIPYTVDENTQGLAFVPLHEEQAGFEEIELDDFSETHRLLPQNTSSTPVGSGVRRSLIPTQEFSATRPTGVVTYGSPDTYSASPVTDPDSTSPSLVIDDTTTTPIIIIDGHTVDLYSSNYTLHPSLLRKRKKRKHA	no binding

biological target: HPV11 L1 protein (human papillomavirus type 11) (UniProt P04012); test: co-expression, glutathione sepharose eluate, densitometry of Coomassie-stained SDS-PAGE

Molecule	L1:L2
HPV12 GST-L2 fusion protein, L2 amino acids 360-518 (from UniProt P08515 1-218)	< 1 L1:L2 ratio
HPV5 GST-L2 fusion protein, L2 amino acids 376-518 (from UniProt P06918 376-518)	< 1 L1:L2 ratio
COPV1 GST-L2 fusion protein, L2 amino acids 360-513 (from UniProt P08515 1-218)	< 1 L1:L2 ratio

biological target: T1, HPV11 L1 protein; test: co-expression, glutathione sepharose eluate, densitometry

Molecule	L1:L2	binding result
HPV11 GST-L2 (313-455) double mutant AL417-418EE (other, The text says 'changed to glutamines' but prints EE and speaks of negatively charged residues; also called pXA/BN-HPV11L2/313-455/AL417418EE; not shown: N-terminal GST fusion partner and its thrombin linker (vector pXA/BN with the pGEX-4T-2 cloning site)) GARIHYFQDISPVTQAAEEIELHPLVAAENDTFDIYAEPFDPIPDPVQHSVTQSYLTSTPNTLSQSWGNTTVPLSIPSDWFVQSGPDITFPTASMGTPFSPVTPEEPTGPVFITGSDFYLHPTWYFARRRRKRIPLFFTDVAA	0.33 L1:L2 ratio	
HPV11 GST-L2 (313-455) mutant P416A (other, also called pXA/BN-HPV11L2/313-455/P416A; not shown: N-terminal GST fusion partner and its thrombin linker (vector pXA/BN with the pGEX-4T-2 cloning site)) GARIHYFQDISPVTQAAEEIELHPLVAAENDTFDIYAEPFDPIPDPVQHSVTQSYLTSTPNTLSQSWGNTTVPLSIPSDWFVQSGPDITFPTASMGTPFSPVTAALPTGPVFITGSDFYLHPTWYFARRRRKRIPLFFTDVAA		binds
HPV11 GST-L2 (313-455) mutant P413A (other, also called pXA/BN-HPV11L2/313-455/P413A; not shown: N-terminal GST fusion partner and its thrombin linker (vector pXA/BN with the pGEX-4T-2 cloning site)) GARIHYFQDISPVTQAAEEIELHPLVAAENDTFDIYAEPFDPIPDPVQHSVTQSYLTSTPNTLSQSWGNTTVPLSIPSDWFVQSGPDITFPTASMGTPFSAVTPALPTGPVFITGSDFYLHPTWYFARRRRKRIPLFFTDVAA		binds
HPV11 GST-L2 (313-455) mutant P419A (other, also called pXA/BN-HPV11L2/313-455/P419A; not shown: N-terminal GST fusion partner and its thrombin linker (vector pXA/BN with the pGEX-4T-2 cloning site)) GARIHYFQDISPVTQAAEEIELHPLVAAENDTFDIYAEPFDPIPDPVQHSVTQSYLTSTPNTLSQSWGNTTVPLSIPSDWFVQSGPDITFPTASMGTPFSPVTPALATGPVFITGSDFYLHPTWYFARRRRKRIPLFFTDVAA		binds
HPV11 GST-L2 (313-455) mutant L418E (other, not shown: N-terminal GST fusion partner and its thrombin linker (vector pXA/BN with the pGEX-4T-2 cloning site)) GARIHYFQDISPVTQAAEEIELHPLVAAENDTFDIYAEPFDPIPDPVQHSVTQSYLTSTPNTLSQSWGNTTVPLSIPSDWFVQSGPDITFPTASMGTPFSPVTPAEPTGPVFITGSDFYLHPTWYFARRRRKRIPLFFTDVAA		binds
HPV11 GST-L2 (313-455) mutant A417E (other, also called pXA/BN-HPV11L2/313-455/A417E; not shown: N-terminal GST fusion partner and its thrombin linker (vector pXA/BN with the pGEX-4T-2 cloning site)) GARIHYFQDISPVTQAAEEIELHPLVAAENDTFDIYAEPFDPIPDPVQHSVTQSYLTSTPNTLSQSWGNTTVPLSIPSDWFVQSGPDITFPTASMGTPFSPVTPELPTGPVFITGSDFYLHPTWYFARRRRKRIPLFFTDVAA	1 L1:L2 ratio	
